Test results published in US20140161799A1 (ARCH ONCOLOGY, published 2014).
Where a chain is given by its changes, count along the chain named. One block for each binder: values may come before it.

Experiments:
Test in all cases: flow cytometry on RBCs, antibody 10 ng/ml
[1] = biological target: T1, human CD47 (human, UniProt Q08722 19-323)
T1 construct: whole, on cells; also called CD47 on human red blood cells
Protocol: (§1) Cross species reactivity of humanized antibodies of the present invention is determined using freshly isolated red blood cells (RBCs), which display CD47 on their surface, from human, mouse, rat, and pig according to the methods disclosed in Kamel et al. (2010) Blood. Transfus. 8(4):260-266.
(§2) RBCs are incubated for 60 minutes on ice with tissue culture supernatants containing the secreted humanized antibodies at a concentration of 10 ng/ml in a solution of phosphate buffered saline, pH 7.2, 2.5 mM EDTA (PBS+E). Cells are then washed with cold PBS+E, and incubated for an additional hour on ice with FITC labeled donkey anti-human antibody (Jackson Immuno Research Labs, West Grove, Pa.; Catalogue #709-096-149) in PBS+E. Cells are then washed with PBS+E, and antibody binding is analyzed using a BD FACSAria Cell Sorter (Becton Dickinson) or a C6 Accuri Flow Cytometer (Becton Dickinson). Antibody binding is quantitated by comparison of mean fluorescence values relative to that of chimeric antibody >VxP037-01LC (SEQ ID NO:7))/>VxP037-01HC (SEQ ID NO:57). The mean fluorescence value for each antibody is divided by the mean fluorescence value for the chimeric antibody.

[2] = biological target: T2, pig CD47 (pig, UniProt Q9GKE8 19-303)
T2 construct: whole, on cells; also called CD47 on pig red blood cells
T2 sequence (looked up): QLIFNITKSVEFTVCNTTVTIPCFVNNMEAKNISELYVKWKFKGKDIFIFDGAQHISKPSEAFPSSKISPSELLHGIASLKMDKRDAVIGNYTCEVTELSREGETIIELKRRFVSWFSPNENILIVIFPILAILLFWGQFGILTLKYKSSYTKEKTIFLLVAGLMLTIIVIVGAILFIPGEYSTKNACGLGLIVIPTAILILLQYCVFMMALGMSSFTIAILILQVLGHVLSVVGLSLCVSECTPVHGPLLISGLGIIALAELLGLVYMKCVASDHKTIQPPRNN
Protocol: as §1, §2

[3] = biological target: T3, rat CD47 (rat, UniProt P97829 19-303)
T3 construct: whole, on cells; also called CD47 on rat red blood cells
T3 sequence (looked up): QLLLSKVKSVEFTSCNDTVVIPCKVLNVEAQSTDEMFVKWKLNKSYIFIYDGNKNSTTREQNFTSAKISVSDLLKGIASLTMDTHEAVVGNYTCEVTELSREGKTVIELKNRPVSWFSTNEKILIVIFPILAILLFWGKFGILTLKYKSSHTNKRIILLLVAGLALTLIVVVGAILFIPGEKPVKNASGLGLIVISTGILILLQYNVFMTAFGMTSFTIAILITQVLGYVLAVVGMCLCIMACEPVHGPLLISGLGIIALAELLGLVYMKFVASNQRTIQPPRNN
Protocol: as §1, §2

[4] = biological target: T4, mouse CD47 (mouse, UniProt Q61735 19-303)
T4 construct: whole, on cells; also called CD47 on mouse red blood cells
T4 sequence (looked up): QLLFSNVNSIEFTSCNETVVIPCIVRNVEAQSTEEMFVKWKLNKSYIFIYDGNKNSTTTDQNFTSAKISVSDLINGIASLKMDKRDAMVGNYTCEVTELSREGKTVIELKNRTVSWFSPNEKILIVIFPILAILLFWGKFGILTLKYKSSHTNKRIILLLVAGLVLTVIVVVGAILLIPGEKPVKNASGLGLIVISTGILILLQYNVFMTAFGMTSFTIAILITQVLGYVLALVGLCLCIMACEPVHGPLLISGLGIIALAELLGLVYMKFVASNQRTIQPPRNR
Protocol: as §1, §2

T1 sequence (Q08722 19-323): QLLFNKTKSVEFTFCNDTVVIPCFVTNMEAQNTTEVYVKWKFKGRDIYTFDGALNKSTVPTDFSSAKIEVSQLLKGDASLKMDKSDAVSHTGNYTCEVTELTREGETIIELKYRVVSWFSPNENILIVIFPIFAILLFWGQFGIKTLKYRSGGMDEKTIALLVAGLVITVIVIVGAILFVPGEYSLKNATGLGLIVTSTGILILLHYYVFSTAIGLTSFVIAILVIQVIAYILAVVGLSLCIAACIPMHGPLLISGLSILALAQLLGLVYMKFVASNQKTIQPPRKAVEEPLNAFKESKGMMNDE

mean fluorescence relative to chimeric antibody [1]: 1.1 fold of chimera | mean fluorescence relative to chimeric antibody [2]: 1.4 fold of chimera | mean fluorescence relative to chimeric antibody [3]: 2.8 fold of chimera | mean fluorescence relative to chimeric antibody [4]: 1.2 fold of chimera
B2: pVxK7b-037-hum22-LC/pVxK7b-037-hum22-HC (antibody, human IgG1, V domains shown)
VH: QVQLQESGPGLVKPSQTLSLTCTVSGYTFTNYYVFWVRQARGQRLEWIGDINPVNGDTNFNEKFKNRLTISKDTSKNQVVLTMTNMDPVDTATYYCARGGYTMDYWGQG
VL: EIVLTQSPATLSVSPGERATLSCRSSQSLVHSNGNTYLHWYQQKPGQAPRLLIYKVSYRFSGVPSRFSGSGSGTDFTFTISSLEAEDAATYYCSQNTHVPRTFGQG
notes: Full-length human IgG1/kappa in CHO supernatant; Variable entries end within framework 4 (...FGQG / ...WGQG); also called Clone 22

mean fluorescence relative to chimeric antibody [1]: 1 fold of chimera | mean fluorescence relative to chimeric antibody [2]: 1.2 fold of chimera | mean fluorescence relative to chimeric antibody [3]: 2.2 fold of chimera | mean fluorescence relative to chimeric antibody [4]: 1.3 fold of chimera
B3: pVxK7b-037-hum18-LC/pVxK7b-037-hum18-HC (antibody, human IgG1, V domains shown)
VH: EVQLVQSGAEVKKPGESLRISCKGSGYTFTNYYVFWIRQSPSRGLEWLGDINPVNGDTNFNEKFKNRVTITADKSTSTAYMELSSLRSEDTAVYYCARGGYTMDYWGQG
VL: B2 VL
notes: Full-length human IgG1/kappa in CHO supernatant; Variable entries end within framework 4 (...FGQG / ...WGQG); also called Clone 18

mean fluorescence relative to chimeric antibody [1]: 1.3 fold of chimera | mean fluorescence relative to chimeric antibody [2]: 1.7 fold of chimera | mean fluorescence relative to chimeric antibody [3]: 1.9 fold of chimera | mean fluorescence relative to chimeric antibody [4]: 1.5 fold of chimera
B6: pVxK7b-037-hum20-LC/pVxK7b-037-hum20-HC (antibody, human IgG1, V domains shown)
VH: QITLKESGPTLVKPTQTLTLTCTFSGYTFTNYYVFWVRQAPGQGLEWMGDINPVNGDTNFNEKFKNRVTITADKSTSTAYMELSSLRSEDTAVYYCARGGYTMDYWGQG
VL: DIVMTQTPLSLPVTPGEPASISCRSSQSLVHSNGNTYLHWYLQKPGQSPQLLIYKVSYRFSGVPDRFSGSGSGTDFTLKISRVEAEDVGVYYCSQNTHVPRTFGQG
notes: Full-length human IgG1/kappa in CHO supernatant; Variable entries end within framework 4 (...FGQG / ...WGQG); also called Clone 20

mean fluorescence relative to chimeric antibody [1]: 0.9 fold of chimera | mean fluorescence relative to chimeric antibody [2]: 1.1 fold of chimera | mean fluorescence relative to chimeric antibody [3]: 2.1 fold of chimera | mean fluorescence relative to chimeric antibody [4]: 1 fold of chimera
B11: pVxK7b-037-hum16-LC/pVxK7b-037-hum16-HC (antibody, human IgG1, V domains shown)
VH: QVQLQESGPGLVKPSQTLSLTCTVSGYTFTNYYVFWVRQARGQRLEWIGDINPVNGDTNFNEKFKNRVTISADKSISTAYLQWSSLKASDTAMYYCARGGYTMDYWGQG
VL: AIQLTQSPSSLSASVGDRVTITCRSSQSLVHSNGNTYLHWYQQKPGQAPRLLIYKVSYRFSGVPDRFSGSGSGTDFTLKISRVEAEDVGVYYCSQNTHVPRTFGQG
notes: Full-length human IgG1/kappa in CHO supernatant; Variable entries end within framework 4 (...FGQG / ...WGQG); also called Clone 16

mean fluorescence relative to chimeric antibody [1]: 0.8 fold of chimera | mean fluorescence relative to chimeric antibody [2]: 1.3 fold of chimera | mean fluorescence relative to chimeric antibody [3]: 2.1 fold of chimera | mean fluorescence relative to chimeric antibody [4]: 0.9 fold of chimera
B12: pVxK7b-037-hum17-LC/pVxK7b-037-hum17-HC (antibody, human IgG1, V domains shown)
VH: B3 VH with E16A, S17T, L18V, R19K, G24V, S40P, S42G, R43K, L48I
VL: B11 VL
notes: Full-length human IgG1/kappa in CHO supernatant; Variable entries end within framework 4 (...FGQG / ...WGQG); also called Clone 17

The remaining lines, values behind:

B1: pVxK7b-037-hum11-LC/pVxK7b-037-hum11-HC (antibody, human IgG1, V domains shown)
VH: QVQLQESGPGLVKPGATVKISCKVSGYTFTNYYVFWVRQARGQRLEWIGDINPVNGDTNFNEKFKNRVTITADKSTSTAYMELSSLRSEDTAVYYCARGGYTMDYWGQG
VL: B2 VL
notes: Full-length human IgG1/kappa in CHO supernatant; Variable entries end within framework 4 (...FGQG / ...WGQG); also called Clone 11
mean fluorescence relative to chimeric antibody [1]: 0.8 fold of chimera | mean fluorescence relative to chimeric antibody [2]: 1.2 fold of chimera | mean fluorescence relative to chimeric antibody [3]: 1.2 fold of chimera | mean fluorescence relative to chimeric antibody [4]: 0.7 fold of chimera

B4: pVxK7b-037-hum08-LC/pVxK7b-037-hum08-HC (antibody, human IgG1, V domains shown)
VH: QITLKESGPTLVKPTQTLTLTCTFSGYTFTNYYVFWIRQSPSRGLEWLGDINPVNGDTNFNEKFKNRFTISRDNAKNSLYLQMNSLRAEDTAVYYCARGGYTMDYWGQG
VL: B6 VL with L42Q, Q47K, S48A, Q50K
notes: Full-length human IgG1/kappa in CHO supernatant; Variable entries end within framework 4 (...FGQG / ...WGQG); also called Clone 8
mean fluorescence relative to chimeric antibody [1]: 0.7 fold of chimera | mean fluorescence relative to chimeric antibody [2]: 0.8 fold of chimera | mean fluorescence relative to chimeric antibody [3]: 1.2 fold of chimera | mean fluorescence relative to chimeric antibody [4]: 0.7 fold of chimera

B5: pVxK7b-037-hum23-LC/pVxK7b-037-hum23-HC (antibody, human IgG1, V domains shown)
VH: B2 VH
VL: B6 VL with L42Q, Q47K, S48A, Q50K
notes: Full-length human IgG1/kappa in CHO supernatant; Variable entries end within framework 4 (...FGQG / ...WGQG); also called Clone 23
mean fluorescence relative to chimeric antibody [1]: 1.2 fold of chimera | mean fluorescence relative to chimeric antibody [2]: 1.7 fold of chimera | mean fluorescence relative to chimeric antibody [3]: 3.3 fold of chimera | mean fluorescence relative to chimeric antibody [4]: 1.4 fold of chimera

B7: pVxK7b-037-hum01-LC/pVxK7b-037-hum01-HC (antibody, human IgG1, V domains shown)
VH: B11 VH
VL: B6 VL with L42Q, Q47K, S48A, Q50K
notes: Full-length human IgG1/kappa in CHO supernatant; Variable entries end within framework 4 (...FGQG / ...WGQG); also called Clone 1
mean fluorescence relative to chimeric antibody [1]: 1.1 fold of chimera | mean fluorescence relative to chimeric antibody [2]: 1.3 fold of chimera | mean fluorescence relative to chimeric antibody [3]: 2.7 fold of chimera | mean fluorescence relative to chimeric antibody [4]: 1.7 fold of chimera

B8: pVxK7b-037-hum14-LC/pVxK7b-037-hum14-HC (antibody, human IgG1, V domains shown)
VH: B11 VH
VL: B6 VL with I2V, T7S, P15L, E17Q, L42Q, Q47K, S48A, Q50K
notes: Full-length human IgG1/kappa in CHO supernatant; Variable entries end within framework 4 (...FGQG / ...WGQG); also called Clone 14
mean fluorescence relative to chimeric antibody [1]: 1.1 fold of chimera | mean fluorescence relative to chimeric antibody [2]: 1.4 fold of chimera | mean fluorescence relative to chimeric antibody [3]: 3.2 fold of chimera | mean fluorescence relative to chimeric antibody [4]: 1.5 fold of chimera

B9: pVxK7b-037-hum10-LC/pVxK7b-037-hum10-HC (antibody, human IgG1, V domains shown)
VH: B2 VH
VL: B6 VL
notes: Full-length human IgG1/kappa in CHO supernatant; Variable entries end within framework 4 (...FGQG / ...WGQG); also called Clone 10
mean fluorescence relative to chimeric antibody [1]: 1.1 fold of chimera | mean fluorescence relative to chimeric antibody [2]: 1.5 fold of chimera | mean fluorescence relative to chimeric antibody [3]: 2.9 fold of chimera | mean fluorescence relative to chimeric antibody [4]: 1.2 fold of chimera

B10: pVxK7b-037-hum09-LC/pVxK7b-037-hum09-HC (antibody, human IgG1, V domains shown)
VH: B2 VH
VL: B6 VL with I2V, T7S, P15L, E17Q, L42Q, Q47K, S48A, Q50K
notes: Full-length human IgG1/kappa in CHO supernatant; Variable entries end within framework 4 (...FGQG / ...WGQG); also called Clone 9
mean fluorescence relative to chimeric antibody [1]: 1.2 fold of chimera | mean fluorescence relative to chimeric antibody [2]: 1.6 fold of chimera | mean fluorescence relative to chimeric antibody [3]: 3.7 fold of chimera | mean fluorescence relative to chimeric antibody [4]: 1.4 fold of chimera
